Laboratory results taken from US20240279288A1, “APPLICATION OF PLANT JAZ PROTEINS AND DERIVED POLYPEPTIDES IN PREVENTION AND TREATMENT OF HUMAN AND ANIMAL TUMORS” (ANYANG INSTITUTE OF SINO-COTTON INDUSTRY INNOVATION, priority 2021, published 2024).

What was measured:
GhNINJA = assay: Luciferase experiment in tobacco leaves with GhNINJA; format: binding, cotton; details: no fluorescence on the control
Excerpt: Method of the luciferase experiment: GhJAZ1 (corresponding encoding gene sequence set forth in SEQ ID No. 39) was subcloned into pCAMBIA-CLuc vector (Chen, H., et al. “Firefly Luciferase Complementation Imaging Assay for Protein-Protein Interactions in Plants.” Plant Physiology 146.2(2008):368-376.) between KpnI and SalI cleavage sites, and the transcription factors such as GhMYC2 (corresponding encoding gene sequence set forth in SEQ ID No. 72), GhNINJA (corresponding encoding gene sequence set forth in SEQ ID No. 74), and GhCOI1 (corresponding encoding gene sequence set forth in SEQ ID No. 80) were subcloned into pCAMBIA-NLuc (Chen, H., et al. “Firefly Luciferase Complementation Imaging Assay for Protein-Protein Interactions in Plants.” Plant Physiology 146.2(2008):368-376.) between KpnI and SalI cleavage sites, respectively. […] Luciferase substrates were applied at the infected leaves before taking images and placed in a dark room for at least 6 min to quench fluorescence, followed by observation on the Nightowl-II LB983 instrument, using IndigoBasic software under the luciferase-5 min setting conditions.

GhTPL = assay: CO-IP experiment with GhTPL; format: binding, cotton
Method: Steps of method of CO-IP experiment: Non-denaturing lysate was added to 293T cell culture plate (Pricella, Cat. No.: CL-0005), and the cells were completely lysed at 4° C. The lysate was centrifuged at 12,000 rpm for 10 min and the supernatant was collected. The corresponding antibody was added to the obtained non-denatured protein solution, which was incubated overnight at 4° C. Pierce™ protein A/G magnetic agarose (Thermo Fisher Scientific, Inc.) were washed with lysis buffer, followed by addition pre-treated beads to the cell lysate, and incubation at room temperature for 2 hours. The mixture was centrifuged at 4° C., 2,500 rpm for 5 min with supernatant removed, and the agarose beads were washed 5 times with 1 ml of lysis buffer. An appropriate amount of protein loading buffer was added to the pellet, and the sample was incubated in water bath at 100° C. for 10 min. The band of interest was detected by Western blotting.

c-Myc = c-Myc (Homo sapiens, UniProt P01106); assay: LUC experiment in tobacco leaves with c-Myc; format: binding; parameters: with the full length of c-Myc and NMYC, respectively; expressed in transfected cells; host or cells: yeast Y2HGold
Excerpt: Using the method of LUC experiment, c-Myc (NCBI accession number: NM_002467.6) was subcloned to pCAMBIA NLuc vector (Chen, H., et al. “Firefly Luciferase Complementation Imaging Assay for Protein-Protein Interactions in Plants.” Plant Physiology 146.2(2008):368-376.) between the KpnI and SalI cleavage sites, and GhJAZ1 (SEQ ID No. 39) was subcloned to pCAMBIA-CLuc vector (Chen, H., et al. “Firefly Luciferase Complementation Imaging Assay for Protein-Protein Interactions in Plants.” Plant Physiology 146.2(2008):368-376.) between the KpnI and SalI cleavage sites. The constructed recombinant plasmids verified to be positive by sequencing were transformed into Agrobacterium GV3101 (pSoup-p19) (Shanghai Weidi biology technology co., Ltd, Cat. No.: AC1003), which were co-transfected into tobacco leaves. 2-3 days after injection, the infected leaves coated with the fluorescent substrate were placed in a dark chamber of the instrument for at least 6 min before taking images to quench fluorescence, followed by observation on the Nightowl-II LB983 instrument, using IndigoBasic software under the luciferase-5 min setting conditions. Cultivation was performed after co-infection. If there is interaction, LUC luciferase is expressed, and luminescence is detected after substrate application. As shown in F in FIG. 6, GhJAZ1 interacts with c-Myc.

Chain of c-Myc (P01106 whole entry): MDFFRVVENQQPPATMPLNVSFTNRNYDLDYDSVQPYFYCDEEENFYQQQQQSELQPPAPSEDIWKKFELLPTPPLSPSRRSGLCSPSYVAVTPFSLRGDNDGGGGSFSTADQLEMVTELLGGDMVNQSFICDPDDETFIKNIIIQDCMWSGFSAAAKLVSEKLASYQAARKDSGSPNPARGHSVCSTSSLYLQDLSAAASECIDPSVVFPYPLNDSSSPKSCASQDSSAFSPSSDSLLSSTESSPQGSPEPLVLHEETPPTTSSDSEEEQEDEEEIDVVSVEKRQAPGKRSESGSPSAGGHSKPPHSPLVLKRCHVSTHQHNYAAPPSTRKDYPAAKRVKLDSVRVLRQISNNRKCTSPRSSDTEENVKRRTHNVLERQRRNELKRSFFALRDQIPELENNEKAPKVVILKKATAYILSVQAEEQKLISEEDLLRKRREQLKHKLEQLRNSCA
Chain of GhNINJA (as listed by the source): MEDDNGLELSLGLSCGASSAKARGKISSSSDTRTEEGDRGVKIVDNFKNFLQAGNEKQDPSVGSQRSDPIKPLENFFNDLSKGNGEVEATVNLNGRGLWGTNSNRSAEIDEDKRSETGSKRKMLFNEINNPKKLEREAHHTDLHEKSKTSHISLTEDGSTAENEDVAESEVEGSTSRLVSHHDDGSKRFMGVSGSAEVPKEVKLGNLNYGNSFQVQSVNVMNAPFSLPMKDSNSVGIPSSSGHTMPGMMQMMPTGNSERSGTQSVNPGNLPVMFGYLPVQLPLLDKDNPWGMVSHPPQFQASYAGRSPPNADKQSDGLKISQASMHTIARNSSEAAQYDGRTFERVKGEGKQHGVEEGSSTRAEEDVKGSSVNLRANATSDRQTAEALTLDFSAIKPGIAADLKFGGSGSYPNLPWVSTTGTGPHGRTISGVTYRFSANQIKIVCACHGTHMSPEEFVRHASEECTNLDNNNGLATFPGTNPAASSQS
Chain of GhTPL (as listed by the source): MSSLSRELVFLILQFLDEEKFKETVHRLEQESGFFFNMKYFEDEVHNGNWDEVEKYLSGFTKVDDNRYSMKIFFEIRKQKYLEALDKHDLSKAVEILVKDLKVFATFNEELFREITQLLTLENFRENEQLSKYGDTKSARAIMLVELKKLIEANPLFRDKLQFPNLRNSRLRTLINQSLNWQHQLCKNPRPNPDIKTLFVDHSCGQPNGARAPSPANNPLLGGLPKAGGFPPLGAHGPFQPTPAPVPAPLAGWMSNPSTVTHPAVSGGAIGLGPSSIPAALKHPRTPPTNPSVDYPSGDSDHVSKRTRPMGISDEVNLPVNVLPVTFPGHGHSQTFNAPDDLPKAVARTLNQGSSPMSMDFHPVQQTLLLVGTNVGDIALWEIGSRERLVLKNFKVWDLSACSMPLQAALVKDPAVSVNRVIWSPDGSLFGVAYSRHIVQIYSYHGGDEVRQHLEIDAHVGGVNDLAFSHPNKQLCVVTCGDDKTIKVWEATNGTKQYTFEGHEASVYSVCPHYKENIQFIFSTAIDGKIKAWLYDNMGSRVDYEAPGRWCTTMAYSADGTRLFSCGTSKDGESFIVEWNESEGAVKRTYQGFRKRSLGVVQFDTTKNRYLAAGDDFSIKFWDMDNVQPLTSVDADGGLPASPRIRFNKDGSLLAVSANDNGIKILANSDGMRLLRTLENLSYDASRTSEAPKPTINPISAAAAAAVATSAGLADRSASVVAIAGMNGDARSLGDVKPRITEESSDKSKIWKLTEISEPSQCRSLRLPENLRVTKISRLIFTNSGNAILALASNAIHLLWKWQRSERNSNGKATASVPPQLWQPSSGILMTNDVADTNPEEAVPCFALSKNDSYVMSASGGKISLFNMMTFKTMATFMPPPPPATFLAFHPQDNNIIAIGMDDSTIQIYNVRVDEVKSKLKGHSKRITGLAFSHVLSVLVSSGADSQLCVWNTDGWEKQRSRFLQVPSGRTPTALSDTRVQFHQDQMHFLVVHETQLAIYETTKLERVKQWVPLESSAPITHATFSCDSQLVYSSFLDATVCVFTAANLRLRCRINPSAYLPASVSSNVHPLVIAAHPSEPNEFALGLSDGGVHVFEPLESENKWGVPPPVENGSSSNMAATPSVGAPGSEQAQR

B1: GhJAZ1: cotton JAZ1 protein, gene number Gh_A05G0260, sequence SEQ ID No. 4; prokaryotically expressed with His tag, about 30 KD (protein)
chain: MSSCSESTAMKPARSPEKPSFAQTCNLLSQYLKEKGSFGDLSLGMTCNVEANGTPVVPPPTMNLFPLNDKSDDVCGRNGGNPKNLTSMDLFPQQAGLASKDDSPNKLEPQTAPMTIFYGGQVIVFNDFPANKAKEIMLLASNSSSQSNNSFNPIPFTSSIARSPIESSIGVPPTSKPVHPAQRAVPGDLPIARRASLHRFLEKRKDRITAKAPYQINNSAAAPSLSGDNKSWLGLAAQSP
modifications: His tag
notes: prokaryotically expressed with His tag, about 30 KD
fluorescence with GhNINJA after applying luciferase substrate (GhNINJA): stronger fluorescence | interaction with GhTPL (GhTPL): interacts | interaction with c-Myc (c-Myc): interacts
